Experimental data as given in patent US20050053993A1, “Uses of an endothelial cell receptor” (priority 2002, published 2005).

Columns and labels:
endothelial cells = assay: Binding of labeled K5 to endothelial cells (Scatchard); design: species or system human; conditions: stimulated vs starved cells
Description: FIG. 10A is a graph showing the amount of surface expressed GRP78 on endothelial cells compared to rK5 binding. For all the assays in this figure, 50,000 cells were attached to 96 well plates. Human rK5 potency is highly dependent on the extent of iodination because it contains a readily iodinated tyrosine in its binding sequence. […] However dog K5 has a phenylalanine in this position naturally and is folded and active in these assays. Accordingly ^125IrK5 (dog) was used as a reagent. ^125IrK5 (dog) was added to the wells and incubated at room temperature for 1 hour. After 1 hour the cells were washed and the amount of I^125IrK5 (dog) bound was counted.
FIG. 11 is a graph comparing the binding of rK5 to starved, quiescent endothelial cells with that of endothelial cells stimulated by VEGF/bFGF. […] The number of counts remaining bound to the cells after extensive washing determined total amount of rK5 bound.
Binding of human ^125IrK5 to Endothelial Cells: Tritium-labeled rK5 was added to monolayers of 50,000 HMVEC cells that were either starved or stimulated for 16 hours by 15 ng/ml bFGF and 5 ng/ml VEGF in 96 well plates. […] After 1 hour the cells were washed and lysed with M-Per (Pierce, Racine, Wis.) and the amount of ^125IK5 (dog) bound was counted. […] Cells were washed and the amount of bound ^125IK5 (dog) bound was counted. […]

caspase 7 = assay: Caspase 7 activity in HT1080 cells; type: cell-based, human; conditions: rK5 100 nM and hypoxia, overnight
Description: FIG. 16 is a graph showing the effect of rK5 and hypoxia treatment on caspace 7 activity in HT1080 cells. HT1080 cells were plated in 48 well plates. rK5 at 100 nM was added to the plates. HT1080 cells were incubated overnight in hypoxic conditions (95% N2, 5% CO2) compared to controls, which were incubated in 5% CO2. Caspase 7 activity in cell lysates was detected by the activation of an ELISA fluorescent substrate (R&D Systems).

B16F10 = assay: Tumor cell proliferation, B16F10; type: cell-based; conditions: B16F10, 72 hours
Description: (§1) Cell Proliferation Assay. The effect of rK5 and rK5 peptides on endothelial cells were assessed using a proliferation assay with 1% BSA and 3 ng/ml bFGF in serum-free media. Relative cell numbers in each well of a 96 well microplate after incubation for 72 hours in the absence or presence of inhibitors were determined by using the AQueous cell proliferation assay (Promega, San Luis Obispo, Calif.). For all other cell lines tested for proliferation, minimal growth media was used (Cao, Y., Ji, R., Davidson, D., Schaller, J., Marti, D., Sohndel, S., McCance, S., O'Reilly, M., Llinas, M., and Folkman, J. Kringle domains of human angiostatin. Characterization of the anti-proliferative activity on endothelial cells. (1996) J. Biol. Chem. 271, 29461-29467). Results are presented as the percent inhibition of control cell (bFGF-induced) proliferation.

HT1080 = assay: Tumor cell proliferation, HT1080; type: cell-based, human; conditions: HT1080, 72 hours
Description: as §1

[1] = test system: tumor or primary cell proliferation; assay: Tumor or primary cell proliferation; type: cell-based; conditions: at concentrations as high as 100 μM
Description: as §1

B1: rK5: recombinant kringle 5 fragment of human plasminogen (residues 450-543), expressed in E. coli or yeast (protein)
chain: LLPDVETPSEEDCMFGNGKGYRGKRATTVTGTPCQDWAAQEPHRHSIFTPETNPRAGLEKNYCRNPDGDVGGPWCYTTNPRKLYDYCDVPQCAA
binding to stimulated endothelial cells upregulated as compared to starved cells (endothelial cells): 4-10 fold | caspase 7 activity (caspase 7): significant increase in caspase 7 activity | IC50 values for cell proliferation (B16F10): >100 µg/mL | IC50 values for cell proliferation (HT1080): >100 µg/mL | inhibition of tumor or primary cell proliferation [1]: did not cause inhibition
